Results taken from the supplement of paper PMC9112550, “Optimization of the antimicrobial peptide Bac7 by deep mutational scanning” (BMC Biology, 2022).

Tested on: Escherichia coli TOP10
Assay: shrunken log2 fold change of peptide-encoding DNA abundance (4.5 h post-induction vs induction); higher = less antimicrobial activity (less host growth inhibition)
Details: time post-induction: 4.5 h; library: site-saturation at positions 5, 18, 19, 20
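Also: peptides expressed intracellularly from a pBAD plasmid library in pooled LB shake-flask culture, induced with 0.3% L-arabinose, DNA abundance read by NGS, three biological replicates, DESeq2 with apeglm shrinkage.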

Sequence | shrunken log2 fold change
RRIRKRPPRLPRPRPRPDTCPRP | 0.0482
RRIRLRPPRLPRPRPRPTLTPRP | 0.26
RRIRRRPPRLPRPRPRPTKTPRP | 0.049
RRIRNRPPRLPRPRPRPHINPRP | -1.02
RRIRGRPPRLPRPRPRPTKWPRP | 0.262
RRIRHRPPRLPRPRPRPFRGPRP | -0.254
RRIRFRPPRLPRPRPRPCVYPRP | -0.0699
RRIRRRPPRLPRPRPRPQYRPRP | -0.0575
RRIRVRPPRLPRPRPRPVGKPRP | -0.0282
RRIRMRPPRLPRPRPRPQRLPRP | 0.294
RRIRIRPPRLPRPRPRPRVAPRP | 0.386
RRIRARPPRLPRPRPRPVCEPRP | 0.836
RRIRHRPPRLPRPRPRPLYNPRP | -0.459
RRIRERPPRLPRPRPRPAWDPRP | 0.0257
RRIRDRPPRLPRPRPRPTLEPRP | 1.06
RRIRGRPPRLPRPRPRPSGTPRP | 0.913
RRIRTRPPRLPRPRPRPQEAPRP | 0.0871
RRIRARPPRLPRPRPRPEFYPRP | 0.329
RRIRSRPPRLPRPRPRPGLPPRP | 0.225
RRIRNRPPRLPRPRPRPKWKPRP | 0.0263
RRIRCRPPRLPRPRPRPNSWPRP | 0.0889
RRIRARPPRLPRPRPRPNCGPRP | 0.281

Sequence | shrunken log2 fold change
RRIRTRPPRLPRPRPRPQIKPRP | -0.0374
RRIRLRPPRLPRPRPRPMYFPRP | -0.252
RRIRCRPPRLPRPRPRPSGQPRP | -0.0552
RRIRWRPPRLPRPRPRPAYFPRP | 0.125
RRIRERPPRLPRPRPRPVGAPRP | 0.392
RRIRSRPPRLPRPRPRPFCSPRP | -0.212
RRIRFRPPRLPRPRPRPNNAPRP | -0.271
RRIRRRPPRLPRPRPRPNVKPRP | 0.0575
RRIRPRPPRLPRPRPRPELSPRP | 0.46
RRIRVRPPRLPRPRPRPHAHPRP | -0.256
RRIRKRPPRLPRPRPRPMENPRP | 0.0428
RRIRLRPPRLPRPRPRPNDTPRP | -0.302
RRIRCRPPRLPRPRPRPPDRPRP | 0.394
RRIRFRPPRLPRPRPRPYQLPRP | -0.573
RRIRPRPPRLPRPRPRPMALPRP | -0.0509
RRIRHRPPRLPRPRPRPFAHPRP | 0.186
RRIRNRPPRLPRPRPRPNREPRP | 0.00564
RRIRDRPPRLPRPRPRPAMRPRP | 0.415
RRIRSRPPRLPRPRPRPKRQPRP | 0.000345
RRIRSRPPRLPRPRPRPSDWPRP | 0.0164
RRIRYRPPRLPRPRPRPYNSPRP | -0.102
RRIRNRPPRLPRPRPRPYHAPRP | -0.0081

Sequence | shrunken log2 fold change
RRIRGRPPRLPRPRPRPVPCPRP | 0.463
RRIRFRPPRLPRPRPRPAWPPRP | 0.268
RRIRVRPPRLPRPRPRPTNWPRP | 0.202
RRIRWRPPRLPRPRPRPHIAPRP | 0.0545
RRIRMRPPRLPRPRPRPDSLPRP | -0.0169
RRIRGRPPRLPRPRPRPYLHPRP | -0.385
RRIRYRPPRLPRPRPRPPICPRP | -0.801
RRIRRRPPRLPRPRPRPYSRPRP | -0.391
RRIRVRPPRLPRPRPRPRMRPRP | 0.873
RRIRGRPPRLPRPRPRPPKSPRP | 0.616
RRIRPRPPRLPRPRPRPIYWPRP | 0.00563
RRIRNRPPRLPRPRPRPCKSPRP | -0.0291
RRIRHRPPRLPRPRPRPSWDPRP | -0.205
RRIRFRPPRLPRPRPRPVPDPRP | -0.136
RRIRCRPPRLPRPRPRPTHTPRP | 0.388
RRIRCRPPRLPRPRPRPNFQPRP | -0.438
RRIRIRPPRLPRPRPRPQFNPRP | -0.846
RRIRTRPPRLPRPRPRPKGTPRP | -0.188
RRIRSRPPRLPRPRPRPASCPRP | 0.131
RRIRTRPPRLPRPRPRPVAQPRP | 0.26
RRIRNRPPRLPRPRPRPQPDPRP | -0.0718
RRIRRRPPRLPRPRPRPGWFPRP | 0.283

Sequence | shrunken log2 fold change
RRIRVRPPRLPRPRPRPTARPRP | 0.293
RRIRHRPPRLPRPRPRPMFYPRP | -0.446
RRIRLRPPRLPRPRPRPFWCPRP | -0.0123
RRIRVRPPRLPRPRPRPGECPRP | -0.145
RRIRARPPRLPRPRPRPECYPRP | 0.361
RRIRKRPPRLPRPRPRPSTDPRP | -0.135
RRIRTRPPRLPRPRPRPCPMPRP | 0.00574
RRIRSRPPRLPRPRPRPKGIPRP | -0.357
RRIRLRPPRLPRPRPRPYYNPRP | -1.18
RRIRHRPPRLPRPRPRPSCDPRP | -0.336
RRIRERPPRLPRPRPRPKLCPRP | 0.000831
RRIRARPPRLPRPRPRPRSQPRP | 0.00929
RRIRWRPPRLPRPRPRPINPPRP | -0.247
RRIRYRPPRLPRPRPRPHQIPRP | -0.201
RRIRQRPPRLPRPRPRPTQCPRP | -0.343
RRIRVRPPRLPRPRPRPIKFPRP | 0.0613
RRIRGRPPRLPRPRPRPISWPRP | -0.0765
RRIRQRPPRLPRPRPRPAWPPRP | 0.303
RRIRPRPPRLPRPRPRPIQFPRP | -0.145
RRIRQRPPRLPRPRPRPHNDPRP | -0.421
RRIRDRPPRLPRPRPRPVYYPRP | -0.707
RRIRWRPPRLPRPRPRPPTIPRP | -0.0126

Sequence | shrunken log2 fold change
RRIRARPPRLPRPRPRPCTKPRP | 0.143
RRIRARPPRLPRPRPRPGWDPRP | 0.811
RRIRYRPPRLPRPRPRPTHPPRP | -0.311
RRIRLRPPRLPRPRPRPRKTPRP | 0.0104
RRIRRRPPRLPRPRPRPRSAPRP | 0.532
RRIRGRPPRLPRPRPRPTEYPRP | -0.0607
RRIRGRPPRLPRPRPRPQMRPRP | 0.899
RRIRWRPPRLPRPRPRPEKHPRP | 0.39
RRIRIRPPRLPRPRPRPFIQPRP | -0.551
RRIRWRPPRLPRPRPRPQQEPRP | 0.0149
RRIRIRPPRLPRPRPRPARDPRP | -0.169
RRIRKRPPRLPRPRPRPTPAPRP | 1.41
RRIRARPPRLPRPRPRPETNPRP | 1.01
RRIRNRPPRLPRPRPRPIKCPRP | -0.0141
RRIRVRPPRLPRPRPRPCWTPRP | -0.665
RRIRRRPPRLPRPRPRPIFHPRP | 0.129
RRIRQRPPRLPRPRPRPFNQPRP | 0.00312
RRIRKRPPRLPRPRPRPWVRPRP | -0.0489
RRIRVRPPRLPRPRPRPSNKPRP | -0.751
RRIRLRPPRLPRPRPRPTINPRP | -0.524
RRIRERPPRLPRPRPRPHYDPRP | -0.963
